# B1: THAP1; numbered along this chain (parent)
# chain: MVQSCSAYGCKNRYDKDKPVSFHKFPLTRPSLCKEWEAAVRRKNFKPTKYSSICSEHFTPDCFKRECNNKLLKENAVPTIFLCTEPHDKKEDLLEPQEQLPPPPLPPPVSQVDAAIGLLMPPLQTPVNLSVFCDHNYTVEDTMHQRKRIHQLEQQVEKLRKKLKTAQQRCRRQERQLEKLKEVVHFQKEKDDVSERGYVILPNDYFEIVEVPA
# Variants of: B1
# Experiment: THAP1 transcriptional activity (GFP+/GFP- enrichment relative to wild-type constructs) (ratio to WT); higher = more THAP1 activity (PSMB5 reporter activation)
# Conditions: with PSMB5 promoter-GFP reporter
# Protocol: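 Deep mutational scan of human THAP1. Site-saturation single amino acid variant library (residues 2-213) was expressed by lentivirus at MOI ~0.3 in THAP1-knockout HEK-293T cells carrying an endogenous PSMB5 promoter-GFP knock-in reporter. Five days post-transduction, BFP+ cells were FACS-sorted into GFP dim and GFP bright populations and variants were counted by Illumina sequencing. Activity is the GFP-bright/GFP-dim read fold change, mean of 2 replicates, divided by the mean fold change of wild-type (synonymous) constructs in the same screen pool; WT = 1.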
row,Variant,THAP1 transcriptional activity
1,T142N,0.392
2,T142L,0.587
3,T142W,0.266
4,C54D,0.178
5,C54Y,0.124
6,C54N,0.106
7,S110Q,0.788
8,Q97L,1.55
9,Q97K,0.467
10,Q97N,0.877
11,K73S,0.154
12,K73A,0.31
13,F25A,0.123
14,F25W,0.156
15,F25Q,0.0935
16,F25K,0.0509
17,F25N,0.108
18,R148P,0.18
19,R148D,0.202
20,H144N,0.686
21,H144V,0.388
22,H144C,0.498
23,L94P,1.67
24,L94W,0.914

row,Variant,THAP1 transcriptional activity
1,L94R,2.34
2,H135S,0.182
3,H135P,0.31
4,V127Y,0.411
5,V127H,0.843
6,F63P,0.103
7,F63W,0.473
8,F63M,0.089
9,L72Y,0.172
10,S51I,0.124
11,S51N,0.16
12,S51Y,0.0754
13,S51V,0.102
14,C62G,0.113
15,C62K,0.21
16,C62M,0.591
17,Q3L,0.354
18,V112D,0.804
19,V112Q,1.03
20,L100V,1.84
21,L100K,1.18
22,L100D,1.66
23,E74R,0.858
24,E74D,0.59

row,Variant,THAP1 transcriptional activity
1,E74Q,1.17
2,N75D,0.507
3,P104I,0.946
4,T79S,0.71
5,T79C,0.183
6,I116T,1.04
7,Q173S,0.592
8,E153Q,0.585
9,P47K,0.111
10,P47G,0.111
11,N44S,0.494
12,N44P,0.0859
13,N44L,0.205
14,Y8Q,0.509
15,K70M,0.175
16,K70D,0.0985
17,S4F,0.177
18,S4P,0.142
19,S4A,0.338
20,S4V,0.187
21,M143Y,0.547
22,M143H,0.575
23,M143P,1.2
24,M143D,1.76

row,Variant,THAP1 transcriptional activity
1,M143G,1.05
2,E207T,0.557
3,D204H,0.501
4,D204E,1.22
5,S21R,0.131
6,T28V,0.231
7,T28C,0.495
8,V211G,0.936
9,V211R,0.811
10,K18N,0.432
11,K18A,0.356
12,K18T,0.348
13,K18Y,0.142
14,L152N,0.287
15,P126S,1.11
16,P126F,0.178
17,P126Y,0.194
18,L180S,0.482
19,L180C,0.43
20,V2P,0.71
21,V2E,0.154
22,V2C,0.162
23,S194P,1.22
24,T48W,0.0814

row,Variant,THAP1 transcriptional activity
1,K162T,0.273
2,K162C,0.329
3,K162E,0.269
4,K162I,0.164
5,K162Y,0.188
6,L163K,0.168
7,L163T,0.195
8,L163C,0.422
9,R160M,0.278
10,R160H,0.433
11,V209D,0.517
12,V156A,0.555
13,Q168K,0.394
14,P121Q,0.491
15,P121K,0.594
16,P121C,0.259
17,M120H,0.611
18,K164P,0.28
19,Q155M,0.674
20,Q111M,0.329
21,Q111K,1.01
22,Q111G,0.565
23,A76P,0.384
24,K90D,0.818

row,Variant,THAP1 transcriptional activity
1,K90L,0.82
2,K90Y,0.498
3,K90S,1.77
4,V199G,0.935
5,V199C,0.947
6,R196E,1.34
7,R196N,0.869
8,R196V,1.54
9,R169H,0.531
10,R169F,0.246
11,R169W,0.138
12,R169Y,0.183
13,A39N,0.865
14,T59F,0.186
15,T59V,0.269
16,T59I,0.147
17,T59G,0.413
18,V40Q,0.142
19,V40D,0.0854
20,E85W,0.155
21,E85V,0.702
22,F58G,0.064
23,F58E,0.149
24,F58N,0.0722

row,Variant,THAP1 transcriptional activity
1,N12Q,0.22
2,C83P,0.676
3,P122G,0.667
4,P122D,0.515
5,D61N,0.472
6,P107I,0.533
7,P107G,1.11
8,P107R,0.608
9,G197P,0.913
10,G197D,0.656
11,L118R,1.19
12,K11I,0.265
13,L93V,1.15
14,L93M,0.701
15,L93E,1.43
16,Q176S,0.434
17,Q176G,0.189
18,Q176R,1.1
19,K46H,0.654
20,K46M,0.442
21,K46P,0.126
22,F81H,0.525
23,F81A,0.367
